{"source": "the DeepSol protein solubility set"}
{"assay": "soluble on expression in E. coli; label from the status in PepcDB or PDB records"}
{"sequence": "MSEIEELVCIEASVTRKSTSNTVEIRESRRNKVTLGSSDSPAFPTPHLFLKNIVSFDEQSMYNLLYPRLQDPNLCSILSFKIAFEAKRVPGPLYISYDVTLTPQIFEEPDMETCGLCLLEEQHLFDMPNCAHVFHGDCIDKWLSTSNNCPLCGVEIMDDDE", "soluble on expression in E. coli": "soluble"}
{"sequence": "MSEKMVAIMKTKPGYGAELVEVDVPKPGPGEVLIKVLATSICGTDLHIYEWNEWAQSRIKPPQIMGHEVAGEVVEIGPGVEGIEVGDYVSVETHIVCGKCYACRRGQYHVCQNTKIFGVDTDGVFAEYAVVPAQNIWKNPKSIPPEYATLQEPLGNAVDTVLAGPISGKSVLITGAGPLGLLGIAVAKASGAYPVIVSEPSDFRRELAKKVGADYVINPFEEDVVKEVMDITDGNGVDVFLEFSGAPKALEQGLQAVTPAGRVSLLGLYPGKVTIDFNNLIIFKALTIYGITGRHLWETWYTVSRLLQSGKLNLDPIITHKYKGFDKYEEAFELMRAGKTGKVVFMLK", "soluble on expression in E. coli": "soluble"}
{"sequence": "MSEKVVFSQLSRKFIDENDATPAEAQQVVYYSLAIGHHLGVIDCLEAALTCPWDEYLAWIATLEAGSEARRKMEGVPKYGEIVIDINHVPMLANAFDKARAAQTSQQKEWSTMLLSMLHDIHQENAIYLMVRRLRD", "soluble on expression in E. coli": "not soluble"}
{"sequence": "MSELLSSVSQQLLAPGGLELDSLPGILHELNGPGIDAADLYFQSQVSESWMLEDGIVKEGSFNLDQGVGVRAQSGEKTGFAYSNAITAEALKQAAVAARSISRAGQNGSVQAFKAVVPARLYAGENPLDVLSRAEKVELLKQIDAATRALDPRIQQVTVSMAGVWEQILVAASDGSLAADIRPLVRFNVSVIVEQNGRRERGGHGGGGRTDYRYFLQEDRAMGYAREALRQALVNLEAIPAPAGTLPVVMGAGWSGVLLHEAVGHGLEGDFNRKGSSAYSGRVGEKVASSLCTIVDDGTLAGRRGSLSVDDEGTPSNCNVLIENGVLKGYMQDKLNARLMGVARTGNGRRESYAHLPMPRMTNTYMLAGESDPQEIIASVEKGIYCANLGGGQVDITSGKFVFSTSEAYLIENGRITTPVKGATLIGNGPEAMSRVSMVGNDLALDSGVGTCGKDGQSVPVGVGQPTLKIDAITVGGTGA", "soluble on expression in E. coli": "not soluble"}
{"sequence": "MSENSENAPEKVEFTPIGYVENDYFKPEYKEEVYEKVSKIVLREDLVDGLYRVEELEKLYILFYFSKSEGYKLIHRRRYDGEMSGVFASRSPYRPNGIGLTLVELLKVEGNVLYVKGLDAINGTPVLDIKPYMKDLEEKEKENTKLEHHHHHH", "soluble on expression in E. coli": "soluble"}
{"sequence": "MSEPISPRTPQQALAALLARYAPKHLLLVGASRLPAVEAFIHNHPQCQLAHSPAAALPAELAGQRFDLALFVDCLEHLPQRTGLQLLAGVRNLNASRVAVLVDLEASDWQETDFFALAMQNSERFQREGQTLTLYTYDLYEYKQVPDWLNAKFWANPENFGKYWW", "soluble on expression in E. coli": "not soluble"}
{"sequence": "MSERLFVLSQHILPKLALTRLAGRFADWKGGGITTAAIRRFIARYNVDMGEAADSDPAAYATFNDFFTRALKPGVRPVADARLVCPVDGAVSQLGAIDSGRIFQAKGRDYSATALLAGDADLAARFADGHFATIYLSPRDYHRIHMPCAGRLLEMTYVPGDLYSVNPATARGVDRLFARNERVVCVFEDEQSQPFVMVLVGATIVGSMATVWHGVVNPPRRPAVEKWDYRGQDIRLAKGEEMGRFLLGSTVVLLYPAGPLKFNPQWQAASPVRMGEAMASLEHHHHHH", "soluble on expression in E. coli": "not soluble"}
{"sequence": "MSETFSGFDTAPVARVQAAFEEIAHRSMHDLSFLHPTMPVHVSDFTLFEGQWTGTVITPWMLSALIFPGPDQIWPRRTVGEKLGLQLPYGTMTFTVGELEGVSQYLACSLMSPLSRSLSPEEGVRLADDCARMLLSLPVSNPDAPQTSRRALLFGRRSCENA", "soluble on expression in E. coli": "not soluble"}
{"sequence": "MSETLDQWRAGLTLGFAPGHAGRTVLRERAHYGPMLVQRALYPEGPQVCHVAILHPPSGIAGGDALEIRVDVAGGARAALTTPGATRWYKSNGRQASQDVHLRVAAGGRLDWLPLESIFFEEADALARNRIQLESGAAAIGWDLIQLGRVNQSGHWSQGRLHTATELYVDGRLLWVDQGLVGAQDDVRRQVSGLAGFPVHAALWSFGPRLDAEQNEELAGLMPWSDTLRGAATTMPYDATQSLCLVRCLGVHMEDVRAVMTDAWAYLRPRVLDTPAVVPRLWATKLAAALEHHHHHH", "soluble on expression in E. coli": "not soluble"}
{"sequence": "MSETRRNQSSDEQIEKSEIQHQRVVIENSHGEKLVGVLHDTGSTETVVICHGFRSSKNRIPMLTIASFFERAMISSFRFDFAGNGESQGSFQYGNYRREVEDLRSVLQHLRGVNRVISAIIGHSKGGNVVLLYAAKYNDVQTVVNISGRFFLDRGIEFRLGKDYFKRIKDNGFIDVSNRKGKFEYRVTEESLMDRLTTNAHEACLSIRENCRVLTVHGSNDRIVHVTEASEFAKQIKNHKLYVIEGADHEFTSHQHQLASIVLSFFKLDPKKDDESGDISTSNQDSMRSVVPITSRI", "soluble on expression in E. coli": "soluble"}
{"sequence": "MSEVIDLASPIEAHGETLSQVTFRRPTAQEARAIKALPYKIDKNEDVSLDLDVAAKYIAVCAGIPPSSVNQMDLCDINTLSWKVASFFMAAASATLKD", "soluble on expression in E. coli": "soluble"}
{"sequence": "MSEVVKKFMYLNRKAPYGTIYAWEALEVVLIGAAFDQDVCVLFLDDGVYQLTRGQDTKGIGMKNFSPTYRTLGDYEVRRIYVDRDSLEARGLTQDDLVEIAFEDMETEEEFDNIVEVIDSARVSELMNESDAVFSF", "soluble on expression in E. coli": "soluble"}
{"sequence": "MSFDADEEILQDFLVEAGEILEQLSEQLVELESRPDDMDLLNAIFRGFHTVKGGAGFLQLNALVECCHIAENVFDILRKGERRVSSELMDVVLQALDTVNAMFDQVREQSEPTPATPELLAALARLAEPEGAEPAEPVQAPPAAVPPAEPAAPPEAPAQSASSDITDDEFEQLLDALQGDEAPASAVAEAPAAPAGDEISDAEFEALLDQLHGKGKFVPPAVSAEPAQVPAEAVEPAAAAAGDDISDDEFEALLDELHGKGKFGDVPEAAGTPAAPAAAAPAAAPAEQGKAPAAAGGDEISDDEFESLLDELHGKGKFNGASEAVAAAAAVAKNIAAKSPAAKPVAPAKAAAARPAAPDRPAASEAETTVRVDTARLDEIMNMVGELVLVRNRLVRLGLNSGDEAMAKAVANLDVVTGDLQMSVMKTRMQPIKKVFGRFPRLVRDLARNMKKEINLELVGEETDLDKNLVEALADPLVHLVRNAVDHGIESPEEREAAGKPRVGQVVLSAEQEGDHILLMITDDGKGMDAEVLRNKAVEKGLLERDAADRLTDLECYNLIFAPGFSTKTEISDVSGRGVGMDVVKTKISQLNGTVNVFSQKGSGSKIVIKVPLTLAIMPTLMVMLGSQAFAFPLVNVNEIFHLDLSRTNVVDGQEVVIVRDKALPLFYLKRWLVPSAAHEEQGEGHVVILSVGTQRIGFVVDQLVGQEEVVIKPLGKMLQGTPGMAGATITGDGRIALILDVPSMLKRYARRI", "soluble on expression in E. coli": "not soluble"}
{"sequence": "MSFDANIATQYYILMTIKTFRCADPETLFKLGRVARFVNIERPALRKLKQLDLARCIEDIRVPPANRPEILKGDRAGQHSIRINDQWRVCFRWTGTDAEDVEIVDYH", "soluble on expression in E. coli": "not soluble"}
{"sequence": "MSFEKLQKELHEAIEGVNRYNPENVADLAACVQAMVNENKYDKDIVLTILKLYQLNPEKYDEAVVRQVLLKTLMVLPSSDFALAKCLIDTNRLGSQELRRIFDLGAVLESCNFAVFWKLVKGAYKPTTNPNEPFKVPGEVPKMIKPMVGFEDAVKHYACRVISVTFQKIEKKMLSRLLGGASDKEVTALAQSFGWEAKENGDVFFVANHEGTIKTRNIDEKIQFPHVADLLTSIQPPLTL", "soluble on expression in E. coli": "not soluble"}
{"sequence": "MSFFHASQRDALNQSLAEVQGQINVSFQFFPPRTSEMEQTLWNSIDRLSSLKPKFVSVTYGANSGERDRTHSIIKGIKDRTGLEAAPHLTCIDATPDELRTIARDYWNNGIRHIVALRGDLPPGSGKPEMYASDLVTLLKEVADFDISVAAYPEVHPEAKSAQADLLNLKRKVDAGANRAITQFFFDVESYLRFRDRCVSAGIDVEIIPGILPVSNFKQAKKFADMTNVRIPAWMAQMFDGLDDDAETRKLVGANIAMDMVKILSREGVKDFHFYTLNRAEMSYAICHTLGVRPGLLEHHHHHH", "soluble on expression in E. coli": "soluble"}
{"sequence": "MSFKDPPTLQQLARRSLLKDEALTISALPNLPVQLFPPLFKDAFTSRQRKILSLMVATWPFPVLPVGALCGIDHLETLKAVLDGLDLLMSQKDRPSRWNLQVLDLRDAHQDFWDGWAGLLHEVCSQDVFGKNQPVGNHPIPGGKQTISIKMNLSLKYCRRHSHCENLNYLYYWAKQRKDVIQVIFEKLEFTGKHCLRLKLWRLLKLSFVASIQELTIKSIHWDIYNLALIASCLGQMKNLQKLILMNIRRPSSLTDLQEARIITEIFSEFSKLHKLQHLYVNDVYFLKERLDLMLRCFERPLETLTITYCKLSESDMRYLSQCPSIHQLKYLDMSYTTFKPSSHRFLGFLGSLLERLTATLQTLKLECFHLTDSRIRDLLPGLSQCSQLTEVDFVENKFSMVSLKTLLQHTANLTQLTLEKYPAPDEVYDDSLCVIPDRFVQLCSELMNTLKGVRQPKQVYFESTIYSPNFEYLVYNLEGMVSSEPLRRRGRGMVIYISG", "soluble on expression in E. coli": "not soluble"}
{"sequence": "MSFLEKLVAKYEPIKEEKPKLVPKPTRKRQPETTEIVVKTRRITRRNAKAPVKEEEIGHQKAQITIVDDEEFMEQPVQEPIEIEEEQQEESHLEIALPEQPNHEPMQSSPSLPRKSFKPDMHPIAKKGGKICIVDLGLTSHTLPTEQTPGFLKRLGENVGGSIDYSYESIDELIRTAPDAWSKASMGAIRGVMLMQELVTERSMHPKSKPMEKNRLLGEEMAKLNPNDFLNHKLLEVSSLDQTVFINVNLVFSALSIQHGSVRSIVNAMSNHWIDYLIPREQQGSFTTSKKTEPLTFFPGDLTNWPAALLAAAIKLDNDQVDVTRLPSVVNMLFKHHIKVRFDHARGLYRTKHDGQNPPKIVLPKRPIIDCTQFYKSSEDIDEEQVPSTSNFQSSSNSLSTSKSAGREHIPDSP", "soluble on expression in E. coli": "not soluble"}
{"sequence": "MSFLVLPPEVNSALMFAGAGSGPTLAAAAAWDGLAAELGQAANSFSSATAALADTAWQGPAATAMAAAAAPYASWLSTAATRALSAAAQAKAAAAVYEAARAATVDPLLVAANRHQLVSLVLSNLFGQNAPAIAATEAAYEQLWAADVAAMVSYHSGASAVAAQLAPWAQAVRALPNPTAPALASGPAALAIPALGIGNTGIGNIFSIGNIGDYNLGNGNTGNANLGSGNTGQANLGSGNTGFFNFGSGNTANTNFGSGNLGNLNLGSGNDGNGNFGLGNIGDGNRGSGNVGSFNFGTANAGSFNVGSANHGSPNVGFANLGNNNLGIANLGNNNLGIANLGNNNIGIGLTGDNMIGIGALNSGIGNLGFGNSGNNNIGLFNSGNNNIGFFNSGDSNFGFFNSGDTNTGFGNAGFTNTGFGNAGSGNFGFGNAGNNNFGFGNSGFENMGVGNSGAYNTGSFNSGTLNTGDLNSGDFNTGWANSGDINTGGFHSGDLNTGFGSPVDQPVMNSGFGNIGTGNSGFNNSGDANSGFQNTNTGAFFIGHSGLLNSGGGQHVGISNSGTGFNTGLFNTGFNNTGIGNSATNAAFTTTSGVANSGDNSSGGFNAGNDQSGFFDG", "soluble on expression in E. coli": "not soluble"}
{"sequence": "MSFNTIIDWNSCTAEQQRQLLMRPAISASESITRTVNDILDNVKARGDEALREYSAKFDKTTVTALKVSAEEIAAASERLSDELKQAMAVAVKNIETFHTAQKLPPVDVETQPGVRCQQVTRPVASVGLYIPGGSAPLFSTVLMLATPASIAGCKKVVLCSPPPIADEILYAAQLCGVQDVFNVGGAQAIAALAFGTESVPKVDKIFGPGNAFVTEAKRQVSQRLDGAAIDMPAGPSEVLVIADSGATPDFVASDLLSQAEHGPDSQVILLTPAADMARRVAEAVERQLAELPRAETARQALNASRLIVTKDLAQCVEISNQYGPEHLIIQTRNARELVDSITSAGSVFLGDWSPESAGDYASGTNHVLPTYGYTATCSSLGLADFQKRMTVQELSKEGFSALASTIETLAAAERLTAHKNAVTLRVNALKEQA", "soluble on expression in E. coli": "soluble"}
